Assay results: PMC3005623 (Journal of molecular biology, 2010)
Where two headings read alike, the source gives them in different places. Each block holds one molecule with its values, some of them ahead of it.

Columns and labels:
Assay in all cases: negative-stain electron microscopy
[1] = target: Cdc3–Cdc11–(His)6–Cdc12-Cdc10(Δ12–28) complex (Cdc11-Cdc12-Cdc3-Cdc10(Δ12–28) hetero-tetramer) (S. cerevisiae) (UniProt P32457)
[2] = target: Cdc3–Cdc11–(His)6–Cdc12-Cdc10(Δ12–28) complex (Cdc11-Cdc12-Cdc3-Cdc10(Δ12–28) hetero-tetramer) (S. cerevisiae) (UniProt P32457); remark: listed apart in the source
[3] = target: Cdc12(Δ318–407) (S. cerevisiae)
[4] = target: the molecule itself
[5] = target: the molecule itself; remark: listed apart in the source

percent of particles that are tetramers [1]: 88.3%
percent of particles that are trimers [1]: 11.7%
percent of particles that are heptamers [2]: 18.2%
percent of particles that are hexamers [2]: 10.8%
percent of particles that are octamers [2]: 21.8%
percent of particles that are pentamers [2]: 8.03%
percent of particles that are tetramers [2]: 41.3%
Molecule: Cdc3–Cdc11–(His)6–Cdc12-Cdc10(Δ12–28) complex (Cdc11-Cdc12-Cdc3-Cdc10(Δ12–28) hetero-tetramer) (from UniProt P32457 1-520; P32458 1-415; P32468 1-407; P25342 1-322)

percent of particles that are heptamers [3]: 31.5%
percent of particles that are hexamers [3]: 18.5%
percent of particles that are octamers [3]: 50%
B1: Cdc11 (natural protein, S. cerevisiae, UniProt P32458 1-415, looked up)
chain: MSGIIDASSALRKRKHLKRGITFTVMIVGQSGSGRSTFINTLCGQQVVDTSTTILLPTDTSTEIDLQLREETVELEDDEGVKIQLNIIDTPGFGDSLDNSPSFEIISDYIRHQYDEILLEESRVRRNPRFKDGRVHCCLYLINPTGHGLKEIDVEFIRQLGSLVNIIPVISKSDSLTRDELKLNKKLIMEDIDRWNLPIYNFPFDEDEISDEDYETNMYLRTLLPFAIIGSNEVYEMGGDVGTIRGRKYPWGILDVEDSSISDFVILRNALLISHLHDLKNYTHEILYERYRTEALSGESVAAESIRPNLTKLNGSSSSSTTTRRNTNPFKQSNNINNDVLNPASDMHGQSTGENNETYMTREEQIRLEEERLKAFEERVQQELLLKRQELLQREKELREIEARLEKEAKIKQEE
binding result [4]: binds

B2: Cdc3(K90A R93A R94A)–Cdc11–(His)6–Cdc12-Cdc10 complex (complex, S. cerevisiae)
chain 1: MSLKEEQVSIKQDPEQEERQHDQFNDVQIKQESQDHDGVDSQYTNGTQNDDSERFEAAESDVKVEPGLGMGITSSQSEKGQVLPDQPEIAFIAAQINGYVGFANLPKQWHRRSIKNGFSFNLLCVGPDGIGKTTLMKTLFNNDDIEANLVKDYEEELANDQEEEEGQGEGHENQSQEQRHKVKIKSYESVIEENGVKLNLNVIDTEGFGDFLNNDQKSWDPIIKEIDSRFDQYLDAENKINRHSINDKRIHACLYFIEPTGHYLKPLDLKFMQSVYEKCNLIPVIAKSDILTDEEILSFKKTIMNQLIQSNIELFKPPIYSNDDAENSHLSERLFSSLPYAVIGSNDIVENYSGNQVRGRSYPWGVIEVDNDNHSDFNLLKNLLIKQFMEELKERTSKILYENYRSSKLAKLGIKQDNSVFKEFDPISKQQEEKTLHEAKLAKLEIEMKTVFQQKVSEKEKKLQKSETELFARHKEMKEKLTKQLKALEDKKKQLELSINSASPNVNHSPVPTKKKGFLR
chain 2: MSGIIDASSALRKRKHLKRGITFTVMIVGQSGSGRSTFINTLCGQQVVDTSTTILLPTDTSTEIDLQLREETVELEDDEGVKIQLNIIDTPGFGDSLDNSPSFEIISDYIRHQYDEILLEESRVRRNPRFKDGRVHCCLYLINPTGHGLKEIDVEFIRQLGSLVNIIPVISKSDSLTRDELKLNKKLIMEDIDRWNLPIYNFPFDEDEISDEDYETNMYLRTLLPFAIIGSNEVYEMGGDVGTIRGRKYPWGILDVEDSSISDFVILRNALLISHLHDLKNYTHEILYERYRTEALSGESVAAESIRPNLTKLNGSSSSSTTTRRNTNPFKQSNNINNDVLNPASDMHGQSTGENNETYMTREEQIRLEEERLKAFEERVQQELLLKRQELLQREKELREIEARLEKEAKIKQEE
chain 3: MSAATATAAPVPPPVGISNLPNQRYKIVNEEGGTFTVMLCGESGLGKTTFINTLFQTVLKRADGQQHRQEPIRKTVEIDITRALLEEKHFELRVNVIDTPGFGDNVNNNKAWQPLVDFIDDQHDSYMRQEQQPYRTKKFDLRVHAVLYFIRPTGHGLKPIDIETMKRLSTRANLIPVIAKADTLTAQELQQFKSRIRQVIEAQEIRIFTPPLDADSKEDAKSGSNPDSAAVEHARQLIEAMPFAIVGSEKKFDNGQGTQVVARKYPWGLVEIENDSHCDFRKLRALLLRTYLLDLISTTQEMHYETYRRLRLEGHENTGEGNEDFTLPAIAPARKLSHNPRYKEEENALKKYFTDQVKAEEQRFRQWEQNIVNERIRLNGDLEEIQGKVKKLEEQVKSLQVKKSHLK
chain 4: MDPLSSVQPASYVGFDTITNQIEHRLLKKGFQFNIMVVGQSGLGKSTLINTLFASHLIDSATGDDISALPVTKTTEMKISTHTLVEDRVRLNINVIDTPGFGDFIDNSKAWEPIVKYIKEQHSQYLRKELTAQRERFITDTRVHAILYFLQPNGKELSRLDVEALKRLTEIANVIPVIGKSDTLTLDERTEFRELIQNEFEKYNFKIYPYDSEELTDEELELNRSVRSIIPFAVVGSENEIEINGETFRGRKTRWSAINVEDINQCDFVYLREFLIRTHLQDLIETTSYIHYEGFRARQLIALKENANSRSSAHMSSNAIQR
binding result [4]: binds

B3: Cdc3(R111A R112A K115A)–Cdc11–(His)6–Cdc12-Cdc10 complex (complex, S. cerevisiae)
chain 1: MSLKEEQVSIKQDPEQEERQHDQFNDVQIKQESQDHDGVDSQYTNGTQNDDSERFEAAESDVKVEPGLGMGITSSQSEKGQVLPDQPEIKFIRRQINGYVGFANLPKQWHAASIANGFSFNLLCVGPDGIGKTTLMKTLFNNDDIEANLVKDYEEELANDQEEEEGQGEGHENQSQEQRHKVKIKSYESVIEENGVKLNLNVIDTEGFGDFLNNDQKSWDPIIKEIDSRFDQYLDAENKINRHSINDKRIHACLYFIEPTGHYLKPLDLKFMQSVYEKCNLIPVIAKSDILTDEEILSFKKTIMNQLIQSNIELFKPPIYSNDDAENSHLSERLFSSLPYAVIGSNDIVENYSGNQVRGRSYPWGVIEVDNDNHSDFNLLKNLLIKQFMEELKERTSKILYENYRSSKLAKLGIKQDNSVFKEFDPISKQQEEKTLHEAKLAKLEIEMKTVFQQKVSEKEKKLQKSETELFARHKEMKEKLTKQLKALEDKKKQLELSINSASPNVNHSPVPTKKKGFLR
chain 2: MSGIIDASSALRKRKHLKRGITFTVMIVGQSGSGRSTFINTLCGQQVVDTSTTILLPTDTSTEIDLQLREETVELEDDEGVKIQLNIIDTPGFGDSLDNSPSFEIISDYIRHQYDEILLEESRVRRNPRFKDGRVHCCLYLINPTGHGLKEIDVEFIRQLGSLVNIIPVISKSDSLTRDELKLNKKLIMEDIDRWNLPIYNFPFDEDEISDEDYETNMYLRTLLPFAIIGSNEVYEMGGDVGTIRGRKYPWGILDVEDSSISDFVILRNALLISHLHDLKNYTHEILYERYRTEALSGESVAAESIRPNLTKLNGSSSSSTTTRRNTNPFKQSNNINNDVLNPASDMHGQSTGENNETYMTREEQIRLEEERLKAFEERVQQELLLKRQELLQREKELREIEARLEKEAKIKQEE
chain 3: MSAATATAAPVPPPVGISNLPNQRYKIVNEEGGTFTVMLCGESGLGKTTFINTLFQTVLKRADGQQHRQEPIRKTVEIDITRALLEEKHFELRVNVIDTPGFGDNVNNNKAWQPLVDFIDDQHDSYMRQEQQPYRTKKFDLRVHAVLYFIRPTGHGLKPIDIETMKRLSTRANLIPVIAKADTLTAQELQQFKSRIRQVIEAQEIRIFTPPLDADSKEDAKSGSNPDSAAVEHARQLIEAMPFAIVGSEKKFDNGQGTQVVARKYPWGLVEIENDSHCDFRKLRALLLRTYLLDLISTTQEMHYETYRRLRLEGHENTGEGNEDFTLPAIAPARKLSHNPRYKEEENALKKYFTDQVKAEEQRFRQWEQNIVNERIRLNGDLEEIQGKVKKLEEQVKSLQVKKSHLK
chain 4: MDPLSSVQPASYVGFDTITNQIEHRLLKKGFQFNIMVVGQSGLGKSTLINTLFASHLIDSATGDDISALPVTKTTEMKISTHTLVEDRVRLNINVIDTPGFGDFIDNSKAWEPIVKYIKEQHSQYLRKELTAQRERFITDTRVHAILYFLQPNGKELSRLDVEALKRLTEIANVIPVIGKSDTLTLDERTEFRELIQNEFEKYNFKIYPYDSEELTDEELELNRSVRSIIPFAVVGSENEIEINGETFRGRKTRWSAINVEDINQCDFVYLREFLIRTHLQDLIETTSYIHYEGFRARQLIALKENANSRSSAHMSSNAIQR
binding result [4]: binds

B4: Cdc10 (natural protein, S. cerevisiae, UniProt P25342 1-322, looked up)
chain: MDPLSSVQPASYVGFDTITNQIEHRLLKKGFQFNIMVVGQSGLGKSTLINTLFASHLIDSATGDDISALPVTKTTEMKISTHTLVEDRVRLNINVIDTPGFGDFIDNSKAWEPIVKYIKEQHSQYLRKELTAQRERFITDTRVHAILYFLQPNGKELSRLDVEALKRLTEIANVIPVIGKSDTLTLDERTEFRELIQNEFEKYNFKIYPYDSEELTDEELELNRSVRSIIPFAVVGSENEIEINGETFRGRKTRWSAINVEDINQCDFVYLREFLIRTHLQDLIETTSYIHYEGFRARQLIALKENANSRSSAHMSSNAIQR
binding result [5]: binds

B5: Cdc10(H24A R25A K28A K29A) (natural protein, S. cerevisiae, UniProt P25342 1-322, looked up)
chain: MDPLSSVQPASYVGFDTITNQIEAALLAAGFQFNIMVVGQSGLGKSTLINTLFASHLIDSATGDDISALPVTKTTEMKISTHTLVEDRVRLNINVIDTPGFGDFIDNSKAWEPIVKYIKEQHSQYLRKELTAQRERFITDTRVHAILYFLQPNGKELSRLDVEALKRLTEIANVIPVIGKSDTLTLDERTEFRELIQNEFEKYNFKIYPYDSEELTDEELELNRSVRSIIPFAVVGSENEIEINGETFRGRKTRWSAINVEDINQCDFVYLREFLIRTHLQDLIETTSYIHYEGFRARQLIALKENANSRSSAHMSSNAIQR
binding result [5]: binds

B6: Cdc10(I22E) (natural protein, S. cerevisiae, UniProt P25342 1-322, looked up)
chain: MDPLSSVQPASYVGFDTITNQEEHRLLKKGFQFNIMVVGQSGLGKSTLINTLFASHLIDSATGDDISALPVTKTTEMKISTHTLVEDRVRLNINVIDTPGFGDFIDNSKAWEPIVKYIKEQHSQYLRKELTAQRERFITDTRVHAILYFLQPNGKELSRLDVEALKRLTEIANVIPVIGKSDTLTLDERTEFRELIQNEFEKYNFKIYPYDSEELTDEELELNRSVRSIIPFAVVGSENEIEINGETFRGRKTRWSAINVEDINQCDFVYLREFLIRTHLQDLIETTSYIHYEGFRARQLIALKENANSRSSAHMSSNAIQR
binding result [5]: binds
